The results in this text go back to patent US20090265797A1 (PIERRE FABRE MEDICAMENT, published 2009).

The term Kd denotes the constant that tells how readily two partners part at equilibrium. By koff is commonly meant a measure of how fast the partners let go of each other. Higher therefore signals fast dissociation. As a reminder, the kon is the second-order rate constant of association. Low values mean slower complex formation, high ones faster complex formation. For orientation: IC50 means the concentration that inhibits the measured activity by half. A low value points to greater potency.

Test [1] has as its target soluble human insulin-like growth factor-1 receptor (hIGF-IR) extra-cellular domain (ECD) (human) (UniProt P08069). As to the kind of experiment: SPR, BIAcore T100, 25 °C; antibody captured by anti-human IgG Fc on CM5, hIGF-IR-ECD as analyte; KD = kd/ka. In general terms: In SPR one partner is held on a chip, and binding of the other changes the refractive index at the surface.

For test [2] the target is unchanged. Briefly: SPR, BIAcore T100, 25 °C; antibody captured by anti-human IgG Fc on CM5, hIGF-IR-ECD as analyte (6.25-100 nM).
Test [3] has as its target IGF-IR on MCF-7 or HT29 cells (human, UniProt P08069 31-1367). As to the kind of experiment: cell-based or functional assay.
The target in test [4] is T1, human IGF-IR (hIGF-IR) from membrane lysate of NIH 3T3 cells stably transfected with the human IGF-IR cDNA, … (human, UniProt P08069 31-1367).
T1 construct: Whole receptor (alpha and beta subunits from one precursor) solubilised from membranes, not on cells; also called immobilized hIGF-IR; human IGF-1 receptor
T1 sequence (P08069 31-1367 limits assumed): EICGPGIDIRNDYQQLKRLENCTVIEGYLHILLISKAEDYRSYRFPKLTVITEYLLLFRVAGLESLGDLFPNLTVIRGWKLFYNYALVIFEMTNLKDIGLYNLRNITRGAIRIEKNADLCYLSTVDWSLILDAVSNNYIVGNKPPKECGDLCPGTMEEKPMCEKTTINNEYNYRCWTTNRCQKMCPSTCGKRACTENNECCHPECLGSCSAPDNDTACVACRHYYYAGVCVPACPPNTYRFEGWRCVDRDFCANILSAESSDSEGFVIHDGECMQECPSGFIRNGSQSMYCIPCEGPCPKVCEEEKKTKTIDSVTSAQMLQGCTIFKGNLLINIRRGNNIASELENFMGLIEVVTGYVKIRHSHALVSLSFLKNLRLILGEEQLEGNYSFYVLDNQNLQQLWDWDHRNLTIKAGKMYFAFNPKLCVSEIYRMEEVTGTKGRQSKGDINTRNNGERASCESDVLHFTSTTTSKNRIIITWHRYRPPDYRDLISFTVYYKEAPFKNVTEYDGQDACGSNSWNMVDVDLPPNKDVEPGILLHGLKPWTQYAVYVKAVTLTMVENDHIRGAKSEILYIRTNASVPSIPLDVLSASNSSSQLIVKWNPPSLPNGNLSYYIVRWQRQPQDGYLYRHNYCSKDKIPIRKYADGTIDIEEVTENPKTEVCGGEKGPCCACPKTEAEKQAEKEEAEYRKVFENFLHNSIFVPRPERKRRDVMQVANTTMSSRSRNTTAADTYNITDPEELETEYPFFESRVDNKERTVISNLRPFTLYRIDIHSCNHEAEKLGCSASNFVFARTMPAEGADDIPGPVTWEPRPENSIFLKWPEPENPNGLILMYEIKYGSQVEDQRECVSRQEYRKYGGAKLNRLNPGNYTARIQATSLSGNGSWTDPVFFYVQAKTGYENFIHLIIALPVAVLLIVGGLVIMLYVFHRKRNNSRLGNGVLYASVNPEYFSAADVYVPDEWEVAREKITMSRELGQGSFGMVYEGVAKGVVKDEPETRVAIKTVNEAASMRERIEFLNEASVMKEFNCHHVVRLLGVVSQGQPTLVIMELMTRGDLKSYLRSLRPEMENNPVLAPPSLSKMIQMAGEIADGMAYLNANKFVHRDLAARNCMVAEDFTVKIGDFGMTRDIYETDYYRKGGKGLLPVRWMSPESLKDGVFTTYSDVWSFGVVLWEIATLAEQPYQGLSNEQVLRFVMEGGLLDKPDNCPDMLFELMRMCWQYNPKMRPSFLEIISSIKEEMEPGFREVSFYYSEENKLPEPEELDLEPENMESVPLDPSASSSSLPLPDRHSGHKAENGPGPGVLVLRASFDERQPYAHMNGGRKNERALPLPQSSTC
As to the kind of experiment: competition of 100 pM [125I]-IGF1 binding to immobilized hIGF-IR; reference: unlabeled IGF1. The procedure: (§1) Two hundred μl of a 20 μg/ml antibody solution in PBS were added to each well and incubated overnight at +4° C. The buffer containing residual 17-69 not attached to protein A was removed by aspiration. Two hundred μl of the membrane lysate at 100 μg/ml were further added and incubated for 2 h at room temperature to immobilize IGF-IR. Non captured proteins were removed by aspiration. […] The plates were incubated at room temperature for 2 h, then counted on a Packard Top Count Microplate Scintillation Counter.
(§2) Concentrations of the various inhibitors required to inhibit the radioligand binding by 50% (IC₅₀) were determined graphically from the sigmoid competition curves obtained (FIGS. 1 and 2).

Test [5] addresses T1, human IGF-IR (hIGF-IR) from membrane …. As to the kind of experiment: competition of 100 pM [125I]-IGF2 binding to hIGF-IR captured by antibody 17-69 on Protein A FlashPlate. On the procedure:
as §1, §2

Test [6] shares this target. As to the kind of experiment: competition of 100 pM [125I]-IGF1 binding to hIGF-IR captured by antibody 17-69 on Protein A FlashPlate; displacement of [^125I]-IGF1 (not [^125I]-IGF2) from immobilized hIGF-IR. The procedure: as §1, §2

Sequence of IGF-IR on MCF-7 or HT29 cells (P08069 31-1367): as the sequence (P08069 31-1367 limits assumed) above

B1: Humanized I-3466 IgG1 antibody (antibody, V domains shown)
VH: EVQLVESGGDLVQPGGSLRLSCAASGFTFNNYIMSWVRQAPGKGLEWVATISGGGSYTFYPDSVKGRFTISRDNSKNTLYLQMNSLRAEDTAVYFCTRNQLLTGMINPLTTPRAWFTYWGQGTLVTVSS
VL: DIVMTQSPDSLAVSLGERATINCKSSQSLLDSRTRKNYLAWYQQKPGQPPKLLIYWASTRESGVPDRFSGSGSGTDFTLTISSLQAEDVAVYYCKQSYNLFTFGGGTKVEIK
B1 registered a Kd in test [1] of 0.342 nM. Also, in test [2], the koff came to 6.29e-05 s⁻¹ and the kon was determined as 184000 M⁻¹ s⁻¹.

B2: murine monoclonal antibody I-3466 (antibody, V domains shown)
VH: EVMLVESGGDLVKPGGSLKLSCAASGFTFNNYIMSWVRQTPEKRLEWVATISGGGSYTFYPDSVKGRFSISRDNAKNTLYLQMSSLRSEDTAMYFCTRNQLLTGMINPLTTPRAWFTYWGQGTLVTVSA
VL: DIVMSQSPSSLAVSAGEKVTMNCKSSQSLLDSRTRKNYLAWYQQKPGQSPKLLIYWASTRESGVPDRFTGSGSGTDFTLTISSVQAEDLAVYYCKQSYNLFTFGGGTKLEIK
notes: a mouse IgG1 (9G4) served as its isotype control
Take B2: the “IC50 of inhibition of IGF1-induced proliferation of MCF-7 cells” value in test [3] turned out to be 0.7 nM. The “IC50 of inhibition of IGF2-induced proliferation of MCF-7 cells” value in test [3] turned out to be 0.5 nM. Moreover, the “fold lower IC50 than non radiolabeled IGF1” value in test [4] worked out at 30 fold. The concentration for half-maximal inhibition (IC50) is around 0.1 nM in test [5] and 0.021 nM in test [6].
